Test results from article doi:10.1101/2025.08.05.25330579.
Changes are numbered by the printed parent chain.

What was measured:
RBM10 RRM2 R332C = target: T1, RBM10 RRM2 R332C (UniProt P98175 300-384, R332C); assay: ITC and NMR
T1 sequence: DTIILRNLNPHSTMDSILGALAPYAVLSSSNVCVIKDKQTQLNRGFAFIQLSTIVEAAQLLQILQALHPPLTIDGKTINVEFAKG

RBM10 RRM2 WT = target: T2, RBM10 RRM2 WT (UniProt P98175 300-384); assay: ITC
T2 sequence: T1 sequence with C33R

UUGUCUGCUCCC (ssRNA) [NUMB exon 12-derived 12mer RNA]
binding signal (RBM10 RRM2 R332C): > 20 fold reduced affinity vs WT
binding result (RBM10 RRM2 WT): binds
